Common to all, as to experiment: cell_activity
Data set [1] has as its system T1, Rec29 WP_089415106.1 (Pantoea agglomerans).
T1 sequence: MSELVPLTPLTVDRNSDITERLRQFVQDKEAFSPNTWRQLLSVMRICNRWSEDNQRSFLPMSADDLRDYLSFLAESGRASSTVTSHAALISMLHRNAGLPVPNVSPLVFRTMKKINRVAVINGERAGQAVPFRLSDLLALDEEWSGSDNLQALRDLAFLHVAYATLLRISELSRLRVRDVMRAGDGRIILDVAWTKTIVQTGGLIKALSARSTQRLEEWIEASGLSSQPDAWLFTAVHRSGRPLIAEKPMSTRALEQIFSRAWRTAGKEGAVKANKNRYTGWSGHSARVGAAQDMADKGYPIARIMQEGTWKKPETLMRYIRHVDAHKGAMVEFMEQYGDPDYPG
The following applies: HEK293T inversion; background 1.305.

For data set [2], the target named is T2, Rec142 (UniProt A0A0J6VB22).
T2 sequence: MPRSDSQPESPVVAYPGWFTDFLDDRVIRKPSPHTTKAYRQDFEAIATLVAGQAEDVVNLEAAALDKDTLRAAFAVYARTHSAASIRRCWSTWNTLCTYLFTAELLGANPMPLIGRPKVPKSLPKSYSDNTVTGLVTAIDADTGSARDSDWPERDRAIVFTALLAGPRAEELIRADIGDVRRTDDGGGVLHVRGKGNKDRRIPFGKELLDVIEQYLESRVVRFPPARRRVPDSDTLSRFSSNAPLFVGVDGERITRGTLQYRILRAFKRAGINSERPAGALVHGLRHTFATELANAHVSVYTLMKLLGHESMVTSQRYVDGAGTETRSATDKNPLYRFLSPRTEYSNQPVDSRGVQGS
The note with it: HEK293T inversion; background 4.4.

The subject of data set [3] is T3, Rec19 WP_058958135.1.
T3 sequence: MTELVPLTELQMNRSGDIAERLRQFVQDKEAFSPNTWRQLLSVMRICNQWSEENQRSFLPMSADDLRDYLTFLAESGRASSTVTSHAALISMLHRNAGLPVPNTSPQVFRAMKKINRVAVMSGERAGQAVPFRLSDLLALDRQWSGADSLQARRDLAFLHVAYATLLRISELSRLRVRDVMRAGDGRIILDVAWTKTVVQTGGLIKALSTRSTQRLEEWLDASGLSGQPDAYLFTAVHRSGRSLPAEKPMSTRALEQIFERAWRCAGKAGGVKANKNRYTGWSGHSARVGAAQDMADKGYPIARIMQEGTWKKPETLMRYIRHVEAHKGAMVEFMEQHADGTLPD
The following applies: HEK293T inversion; background 0.0065.

The subject of data set [4] is T4, Rec20 WP_090967054.1 (Pantoea sp. OV426).
T4 sequence: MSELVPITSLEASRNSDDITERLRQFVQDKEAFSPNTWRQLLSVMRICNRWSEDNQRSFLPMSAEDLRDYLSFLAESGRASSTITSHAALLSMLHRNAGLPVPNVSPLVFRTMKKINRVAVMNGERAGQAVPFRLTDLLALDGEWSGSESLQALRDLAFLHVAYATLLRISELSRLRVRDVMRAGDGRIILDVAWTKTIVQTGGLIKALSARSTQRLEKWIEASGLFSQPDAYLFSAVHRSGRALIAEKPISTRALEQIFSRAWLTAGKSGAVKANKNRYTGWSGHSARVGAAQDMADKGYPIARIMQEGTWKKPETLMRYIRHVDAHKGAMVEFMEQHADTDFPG
The note with it: HEK293T inversion; background 4.93.

Data set [5] relates to T5, Rec30 WP_022624268.1 (Pantoea sp.).
T5 sequence: T1 sequence with G98E, E142K
The following applies: HEK293T inversion; background 1.305.

The test system of data set [6] is T6, Rec31 WP_046103089.1 (Pantoea anthophila).
T6 sequence: T3 sequence with S135T, G341D, T342A
The note with it: HEK293T inversion; background 1.305.

Data set [7] relates to T7, Rec32 WP_069027120.1 (Pantoea agglomerans).
T7 sequence: T1 sequence with R49C, E75Q, S135T, E142K, S145A, A210T, L225I, L244Q, A254S, G339S
The note with it: HEK293T inversion; background 6.6.

Data set [8] relates to T8, Rec33 WP_010671927.1 (Pantoea sp.).
T8 sequence: T1 sequence with E142K
The note with it: HEK293T inversion; background 6.6.

For data set [9], the system named is T9, Rec34 WP_109653747.1 (Pantoea agglomerans).
T9 sequence: T1 sequence with S135T, E142K, S145A, A210T, L225I, A254S, G339S
The note with it: HEK293T inversion; background 6.6.

Data set [10] concerns T10, Rec35 WP_134161939.1 (Pantoea allii).
T10 sequence: T1 sequence with L10Q, S135T, E142K, S145A, A210T, L225I, A231V, A254S, G339S
The note with it: HEK293T inversion; background 6.6.

In data set [11] the test system is T11, Rec36 WP_111534863.1 (Pantoea sp.).
T11 sequence: T1 sequence with G345D
The following applies: HEK293T inversion; background 6.6.

Data set [12] has as its system T12, Rec37 WP_128085508.1 (Pantoea deleyi).
T12 sequence: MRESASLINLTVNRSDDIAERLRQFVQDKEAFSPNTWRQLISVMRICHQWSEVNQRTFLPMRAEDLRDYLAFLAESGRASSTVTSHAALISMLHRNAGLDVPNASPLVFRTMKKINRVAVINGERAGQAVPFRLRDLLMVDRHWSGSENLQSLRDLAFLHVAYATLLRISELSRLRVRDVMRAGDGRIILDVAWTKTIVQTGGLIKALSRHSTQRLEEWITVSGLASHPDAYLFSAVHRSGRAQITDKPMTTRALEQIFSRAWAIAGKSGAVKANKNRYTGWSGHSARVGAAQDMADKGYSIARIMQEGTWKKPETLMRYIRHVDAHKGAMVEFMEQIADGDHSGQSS
The note with it: HEK293T inversion; background 6.6.

The test system of data set [13] is T13, Rec38 WP_115764642.1 (Pantoea agglomerans).
T13 sequence: T1 sequence with T11M, S135T, E142K, S145A, D148E, A152S, A210T, L225I, A254S, G339S
The note with it: HEK293T inversion; background 6.6.

Data set [14] concerns T14, Rec39 WP_111138305.1 (Pantoea sp. ARC607).
T14 sequence: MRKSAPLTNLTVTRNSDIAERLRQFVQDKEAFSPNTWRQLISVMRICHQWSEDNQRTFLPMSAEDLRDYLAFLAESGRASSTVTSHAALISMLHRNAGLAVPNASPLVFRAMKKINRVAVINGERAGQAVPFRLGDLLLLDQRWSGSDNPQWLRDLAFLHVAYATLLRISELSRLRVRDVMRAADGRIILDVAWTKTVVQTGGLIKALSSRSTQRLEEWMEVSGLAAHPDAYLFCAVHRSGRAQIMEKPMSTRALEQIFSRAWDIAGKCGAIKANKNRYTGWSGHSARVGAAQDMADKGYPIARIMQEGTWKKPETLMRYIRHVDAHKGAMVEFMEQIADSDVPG
The following applies: HEK293T inversion; background 6.6.

Data set [15] concerns Rec82. The following applies: HEK293T inversion; background 5.03.
The subject of data set [16] is Rec83. The note with it: HEK293T inversion; background 5.425.

Residue numbers refer to the chain shown, from its start.

Sequence “ATGACTTCGTATANNNNNNNNTATACGAAGTCAT (double strand) [Rec29 natural site]” yielded an activity in data set [1] of 36.9 % GFP+.

Sequence “CCGTCATGGATANNNNNNNNTATCCATGAAGC (double strand) [Rec142 natural site]” showed an activity in data set [2] of 20.2 % GFP+.

With “TGACTTCGTATANNNNNNNNTATACGAAGCCA (double strand) [Rec19-20 natural site]”, the results for the activity in data set [3] and in data set [4] were 63.6 % GFP+ and 70.7 % GFP+, respectively.

Regarding “TGACTTCGTATANNNNNNNNTATACGAAGTCA (double strand) [Rec30-39 natural site]”, the activity stood at 32.1 % GFP+ in data set [5]; 21.3 % GFP+ in data set [6]; 60 % GFP+ in data set [7]; 51 % GFP+ in [8]; 50.6 % GFP+ in data set [9]; 52 % GFP+ in data set [10]. Also, the activity worked out at 44.2 % GFP+ in [11], 40 % GFP+ in data set [12], 44.5 % GFP+ in data set [13] and 42 % GFP+ in data set [14].

With “TGTGACTCCAGANNNNNNNNNTCTGGAGTCATA (double strand) [Rec82-83 natural site]”, the figures for the activity in data set [15] and in data set [16] were 59 % GFP+ and 65.2 % GFP+, respectively.

The values are drawn from patent US20220396813.
